Data taken from the supplement of paper PMC7877785.
± gives the uncertainty stated by the source.

Experiment: self-splicing fitness, log relative to wild type (ln ratio); higher = more splicing; Tetrahymena group I intron in knt gene, E. coli kanamycin selection, DiMSum; sequences stand for … in CUCUCU…GGAGGGAAAAGUUAUCAGGCAUGCACCUGGUAGCUAGUCUUUAAACCAAUAGAUUGCAUCGGUUUAAAAGGCAAGACCGUCAAAUUGCGGGAAAGGGGUCAACAGCCGUUCAGUACCAAGUCUCAGGGGAAACUUUGAGAUGGCCUUGCAAAGGGUAUGGUAAUAAGCUGACGGACAUGGUCCUAACCACGCAGCCAAGUCCUAAGUCAACAGAUCUUCUGUUGAUAUGGAUGCAGUUCACAGACUAAAUGUCGGUCGGGGAAGAUGUAUUCUUCUCAUAAGAUAUAGUCGGACCUCUCCUUAAUGGGAGCUAGCGGAUGAAGUGAUGCAACACUGGAGCCGCUGGGAACUAAUUUGUAUGCGAAAGUAUAUUGAUUAGUUUUGGAGUACUCGUGGUCG
Summary of the method: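 The eight P1ex-region nucleotides of an intron in the knt kanamycin-resistance gene on pET-22b(+) were all randomised and the library put into E. coli BL21(DE3). Six replicate transformations were grown overnight at 37°C or 30°C on LB agar with or without 25 μg/mL kanamycin, together with 100 μg/mL carbenicillin, 50 μM IPTG and 0.2% rhamnose. Colonies were pooled and amplicon-sequenced on an Illumina HiSeq 2500. Fitness from DiMSum is the error-weighted combination of wild-type-normalised replicate fold changes, kanamycin over none.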

Row | Sequence | self-splicing fitness (ln) (30 °C) | self-splicing fitness (ln) (37 °C)
1 | ACCCAGCAAUAUUACGACAA | -1.66 ± 0.1 | -1.09 ± 0.1
2 | ACCCAGCAAUAUUACGACCG | -2.05 ± 0.17 | -0.527 ± 0.18
3 | ACCCAGCAAUAUUACGAGUA | -2.39 ± 0.12 | -1.02 ± 0.079
4 | ACCCAGCAAUAUUACGCGGC | -2.93 ± 0.17 | -2.76 ± 0.26
5 | ACCCAGCAAUAUUACGCGUU | -0.424 ± 0.049 | 0.328 ± 0.066
6 | ACCCAGCAAUAUUACGCUCA | -0.397 ± 0.065 | -0.324 ± 0.087
7 | ACCCAGCAAUAUUACGGAAU | -0.884 ± 0.054 | -0.0542 ± 0.07
8 | ACCCAGCAAUAUUACGGCCU | -0.518 ± 0.052 | 0.0547 ± 0.067
9 | ACCCAGCAAUAUUACGGCUA | -0.684 ± 0.1 | 0.23 ± 0.1
10 | ACCCAGCAAUAUUACGUAAG | -1.13 ± 0.049 | -0.47 ± 0.069
11 | ACCCAGCAAUAUUACGUCGU | -0.24 ± 0.039 | -0.318 ± 0.051
12 | ACCCAGCAAUAUUACGUGCU | -4.5 ± 0.23 | -1.67 ± 0.12
13 | ACCCAGCAAUAUUACGUGUC | -3.36 ± 0.099 | -1.75 ± 0.099
14 | ACCCAGCAAUAUUACGUUUA | -1.57 ± 0.066 | -1.01 ± 0.072
15 | ACCGAGCAAUAUUACGAACU | -2.13 ± 0.13 | -0.803 ± 0.14
16 | ACCGAGCAAUAUUACGAAUG | -2.51 ± 0.16 | -2.7 ± 0.44
17 | ACCGAGCAAUAUUACGAGGU | -2.42 ± 0.23 | -0.758 ± 0.2
18 | ACCGAGCAAUAUUACGAUGC | -1.97 ± 0.14 | -1.56 ± 0.14
19 | ACCGAGCAAUAUUACGCAGU | -3.67 ± 0.16 | -2.48 ± 0.16
20 | ACCGAGCAAUAUUACGCAUA | -2.42 ± 0.21 | -2.57 ± 0.2
21 | ACCGAGCAAUAUUACGCGCA | -2.06 ± 0.1 | -0.82 ± 0.078
22 | ACCGAGCAAUAUUACGCGUC | -3.17 ± 0.15 | -2.18 ± 0.22
23 | ACCGAGCAAUAUUACGCUAU | -2.77 ± 0.14 | -2.26 ± 0.14
24 | ACCGAGCAAUAUUACGCUCC | -2.85 ± 0.39 | -1.79 ± 0.44
